Among the data in patent US20250197491A1 (MACOMICS, published 2025) are binding result and EC50 values, retold here.

One may read the EC50 as the concentration at which the effect is half-maximal. The low end stands for an effect from little substance, the high end for a need for much substance.

In test [1] the target is T1, Human LILRB1 (D1-D2) fused to mouse IgG2a Fc (human).
T1 construct: also called truncated (D1-D2) version of the LILRB1 ecto-domain
In words: ELISA, antigen coated, 10 nM antibody. The text has this: (§1) FIG. 3. Mixed LILRB1 and LILRB2 expression in TAMs from melanoma cancer patients. Analysis of LILRB1 and LILRB2 detection in macrophages in pre- and post-anti-PD-1 and/or anti-CTLA-4 therapy treated melanoma patients (n=33) is shown using Smart-seq2 data from Sade-Feldman et al. https://pubmed.ncbi.nlm.nih.gov/30633907/FIG. 4. Binding to domains of human LILRB1. Plates were coated with recombinant full length LILRB1 ectodomain (SEQ ID NO: 41) or a protein comprising domain 1 and 2 of human LILRB1 protein (SEQ ID NO: 42), and then incubated with 10 nM Clones 1-5, Reference Ab 1, and Isotype control. The bound antibodies were detected using HRP-labeled secondary antibodies and the results were plotted on the graph as absorbance measured at 450 nm.
(§2) Binding to allelic forms of LILRB1. There are 4 major allelic variants of human LILRB1 protein ectodomain. The variants of LILRB1 were expressed as recombinant proteins comprising a modified LILRB1 ectodomain and mouse IgG2 Fc region (SEQ ID NO: 50 and 51) in suspension CHO cells, and purified by using techniques that were known in the art. These recombinant proteins were then used in the direct enzyme-linked immunosorbent assay (ELISA) to determine the antibodies potential to bind different allelic forms of LILRB1. In short, Maxisorp (Nunc) or similar immune-assay plates were coated with solutions of target proteins in PBS, at 4° C., overnight. Plates were then washed with PBS, blocked with 5% milk in PBS, and washed again. Test antibodies diluted in PBS were then added to the plates and incubated at room temperature for at least 1h. Plates were subsequently washed with PBS/0.05% Tween-20 (PBST) and incubated with a solution of horse radish peroxidase (HRP) labelled secondary antibodies at room temperature for at least 1 h. After washing with PBST and PBS, bound antibodies were detected using the 3,3′,5,5;-tetramethylbenzidine (TMB) chromogenic solution. After 5 to 10 minutes, the reaction was stopped with 1% sulphuric acid and absorbance read at 450 nm.
(§3) There are four major allelic variants within the ecto-domain of LILRB1 in human population [Human Molecular Genetics, 2005, Vol. 14, 2469-2480]; namely c.203T>C (L68P), c.277G>A (A93T), c.425T>C (I142T), and c.464G>T (S155I).
(An ELISA detects its analyte on a solid surface through an enzyme-linked reagent.)

The target of test [2] is T2, human LILRB1 ectodomain fused to mIgG2a Fc (human).
T2 construct: also called human LILRB1-mIgG2a; full length LILRB1 ectodomain
T2 sequence (chain, as listed by the source limits assumed): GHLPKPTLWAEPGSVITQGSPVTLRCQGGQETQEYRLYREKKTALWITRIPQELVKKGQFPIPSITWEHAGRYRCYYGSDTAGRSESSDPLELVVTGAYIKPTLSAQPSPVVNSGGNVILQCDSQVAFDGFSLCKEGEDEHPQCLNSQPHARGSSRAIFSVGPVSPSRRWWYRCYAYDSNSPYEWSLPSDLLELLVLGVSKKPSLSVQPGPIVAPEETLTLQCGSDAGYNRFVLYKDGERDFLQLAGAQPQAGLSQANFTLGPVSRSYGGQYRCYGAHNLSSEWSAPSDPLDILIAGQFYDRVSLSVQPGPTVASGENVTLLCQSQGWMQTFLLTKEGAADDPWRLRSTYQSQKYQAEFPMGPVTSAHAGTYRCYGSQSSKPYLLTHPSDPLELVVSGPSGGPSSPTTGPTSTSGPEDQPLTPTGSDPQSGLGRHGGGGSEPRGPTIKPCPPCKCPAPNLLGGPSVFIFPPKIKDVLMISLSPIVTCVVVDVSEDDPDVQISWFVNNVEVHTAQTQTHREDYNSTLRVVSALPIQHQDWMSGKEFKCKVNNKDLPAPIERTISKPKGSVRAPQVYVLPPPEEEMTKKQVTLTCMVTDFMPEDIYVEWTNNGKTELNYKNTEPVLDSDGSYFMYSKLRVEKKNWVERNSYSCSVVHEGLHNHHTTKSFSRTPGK
In words: ELISA, antigen coated, 10 nM antibody.
From the text: as §1, §2, §3

For test [3], the target named is T3, Human full length LILRB1 (human, UniProt Q8NHL6 24-650).
T3 construct: Over-expressed on HEK293 cells for flow cytometry; also called LILRB1 on HEK293 cells; cell membrane embedded LILRB1
T3 sequence (Q8NHL6 24-650 limits assumed): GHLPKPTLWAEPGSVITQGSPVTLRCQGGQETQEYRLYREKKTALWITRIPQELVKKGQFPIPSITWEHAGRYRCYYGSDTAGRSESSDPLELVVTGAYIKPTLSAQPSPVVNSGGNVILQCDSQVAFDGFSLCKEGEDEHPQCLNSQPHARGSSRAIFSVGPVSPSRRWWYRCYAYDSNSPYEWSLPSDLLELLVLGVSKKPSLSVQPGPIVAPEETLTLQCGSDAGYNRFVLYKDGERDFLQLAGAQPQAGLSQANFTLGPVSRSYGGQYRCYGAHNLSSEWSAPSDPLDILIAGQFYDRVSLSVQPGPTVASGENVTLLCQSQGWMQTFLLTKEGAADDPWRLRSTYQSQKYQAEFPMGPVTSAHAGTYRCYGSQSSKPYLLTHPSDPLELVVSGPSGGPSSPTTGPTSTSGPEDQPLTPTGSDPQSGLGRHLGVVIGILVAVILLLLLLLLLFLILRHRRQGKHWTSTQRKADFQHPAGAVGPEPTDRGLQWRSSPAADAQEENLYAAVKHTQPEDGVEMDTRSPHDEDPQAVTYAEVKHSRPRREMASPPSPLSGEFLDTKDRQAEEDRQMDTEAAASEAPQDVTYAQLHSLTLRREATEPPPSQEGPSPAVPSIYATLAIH
In words: flow cytometry on HEK293 cells overexpressing human LILRB1. The protocol:
FIG. 5. Binding to LILRB1 over-expressing cell line. HEK293 cells overexpressing full length human LILRB1 (SEQ ID NO: 45) were incubated with various concentrations of test antibodies (Antibody 1 to 5 and Reference Ab 1). The bound antibodies were detected using PE-labeled secondary antibodies and analyzed by flow cytometry. A) Plot showing mean fluorescence intensity (MFI), B) EC50 values calculated using data from panel A.
Binding to human LILRB1 and LILRB2. HEK293 cells stably expressing full length human LILRB1 (SEQ ID NO: 45), or LILRB2 (SEQ ID NO: 46), or wild-type cells were detached from the culture plates using methods known in art. […] The extent of antibody binding to cells stably expressing full-length human LILRB1, or full-length human LILRB2, was determined by flow cytometry and quantified using geometric mean of the fluorescent signal (GEOM).
The ability of selected anti-LILRB-1 antibodies to bind to the LILRB1 receptor in its native context of the cell membrane was investigated by flow cytometry. HEK293 cells over-expressing full length human LILRB1 (SEQ ID NO: 45) were incubated with the increasing amounts of the antibodies and the cell bound antibodies were detected using PE-labelled secondary antibodies using a flow-cytometer.
Background: A flow cytometer gives signals particle by particle.

In test [4] the target is T4, Human full length LILRB2 (human, UniProt Q8N423 22-597).
T4 construct: Over-expressed on HEK293 cells for flow cytometry; Also used here as the parent protein of the D3-D4 peptide microarrays; also called LILRB2 on HEK293 cells
T4 sequence (Q8N423 other isoform, or with tags, fused parts or gaps limits assumed): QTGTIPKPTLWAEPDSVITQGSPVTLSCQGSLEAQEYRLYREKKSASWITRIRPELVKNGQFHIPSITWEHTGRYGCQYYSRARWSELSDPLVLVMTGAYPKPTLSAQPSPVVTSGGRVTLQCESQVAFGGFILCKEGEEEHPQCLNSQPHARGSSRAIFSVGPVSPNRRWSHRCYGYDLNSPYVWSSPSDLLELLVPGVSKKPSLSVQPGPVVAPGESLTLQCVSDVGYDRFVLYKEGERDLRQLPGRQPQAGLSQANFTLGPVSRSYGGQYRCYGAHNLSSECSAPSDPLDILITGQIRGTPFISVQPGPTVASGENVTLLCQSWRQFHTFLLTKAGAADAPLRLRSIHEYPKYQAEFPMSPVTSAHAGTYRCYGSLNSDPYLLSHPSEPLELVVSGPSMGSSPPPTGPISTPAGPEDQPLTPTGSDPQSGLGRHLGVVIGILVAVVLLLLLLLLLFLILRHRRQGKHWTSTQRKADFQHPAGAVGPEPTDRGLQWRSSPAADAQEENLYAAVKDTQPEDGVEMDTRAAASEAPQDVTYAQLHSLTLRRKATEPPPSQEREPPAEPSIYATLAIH
In words: flow cytometry on HEK293 cells overexpressing human LILRB2. The protocol:
FIG. 7. Binding to LILRB2 over-expressing cell line. HEK293 cells overexpressing full length human LILRB2 (SEQ ID NO: 46) were incubated with various concentrations of test antibodies (Antibody 1 to 5 and Reference Antibody 1).
Binding to human LILRB1 and LILRB2. HEK293 cells stably expressing full length human LILRB1 (SEQ ID NO: 45), or LILRB2 (SEQ ID NO: 46), or wild-type cells were detached from the culture plates using methods known in art. The cells were then incubated with anti-LILRB1 Ab clones at different concentrations followed by incubation with fluorescently labelled secondary antibodies. The extent of antibody binding to cells stably expressing full-length human LILRB1, or full-length human LILRB2, was determined by flow cytometry and quantified using geometric mean of the fluorescent signal (GEOM).

T1 sequence (chain, as listed by the source limits assumed): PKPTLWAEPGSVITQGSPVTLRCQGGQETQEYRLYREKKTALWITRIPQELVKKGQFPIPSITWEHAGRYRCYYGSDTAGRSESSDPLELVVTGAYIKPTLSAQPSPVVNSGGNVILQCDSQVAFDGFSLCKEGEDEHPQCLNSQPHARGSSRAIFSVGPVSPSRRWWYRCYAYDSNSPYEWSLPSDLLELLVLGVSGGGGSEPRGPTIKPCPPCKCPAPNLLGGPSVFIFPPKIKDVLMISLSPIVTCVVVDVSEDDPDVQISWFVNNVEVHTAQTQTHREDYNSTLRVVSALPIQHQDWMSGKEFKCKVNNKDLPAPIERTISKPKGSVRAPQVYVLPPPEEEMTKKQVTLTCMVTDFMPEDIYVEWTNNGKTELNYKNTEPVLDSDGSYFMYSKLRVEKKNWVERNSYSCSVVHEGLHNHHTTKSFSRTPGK

B1: Reference Antibody 1 (anti-human LILRB1 Ab) (antibody, V domains shown)
VH: DVQLQGSGPGLVKPSETLSLTCSVTGYSITSGYYWNWIRQFPGKKLEWMGYISYDGSNNYNPSLKNRITISRDTSKNQFSLKLNSVTAADTATYYCAHGYSYYYAMDAWGQGTSVTVSS
VL: DIQMTQSPSSLSASVGDRVTITCRTSQDISNYLNWYQQKPGKAVKLLISYTSRLHSGVPSRFSGSGSGTDYTLTISSLQPEDFATYYCQQGNTLPTFGQGTKLEIK
Turning to B1, the values for the binding result in test [1], in test [2] and in test [4] were “binds”, “binds” and “no binding”, respectively. In test [3], this molecule registered an EC50 of 0.73 nM.
